Four molecules from paper PMC3401450 (Nucleic Acids Research, 2012) can be followed below.

Values joined by “and” are separate entries in the source; they are usually repeats but may differ in a detail not shown here. Equal entries are not always repeated.

Usually stoichiometry N stands for a count of units in the complex or per binding partner. As usually defined, the Kd is the constant that tells how readily two partners part at equilibrium. A high value points to weaker binding.

The target in data set [1] is Full-length Dreb2a fused to His-tag and GB1-tag (GB1-Dreb2a f.l.) (A. thaliana) (UniProt O82132). In words: cross-linking.
A further data set has as its target Dreb2a f.l. (GB1 fusion) (Arabidopsis thaliana, UniProt O82132 1-335). The experiment in a line: EMSA. Background: In EMSA bound probe runs differently from free probe, usually more slowly.
Data set [2] deals with Dreb2a f.l. (GB1 fusion);Med25 551-680 (ACID domain) (Arabidopsis thaliana;Arabidopsis …, UniProt O82132;Q7XYY2 1-335;551-680, |). The experiment in a line: EMSA supershift.
Data set [3] addresses T1, Dreb2a 168-335 (binding domain and activation domain of Dreb2a) (A. thaliana, UniProt O82132 168-335).
T1 sequence (looked up): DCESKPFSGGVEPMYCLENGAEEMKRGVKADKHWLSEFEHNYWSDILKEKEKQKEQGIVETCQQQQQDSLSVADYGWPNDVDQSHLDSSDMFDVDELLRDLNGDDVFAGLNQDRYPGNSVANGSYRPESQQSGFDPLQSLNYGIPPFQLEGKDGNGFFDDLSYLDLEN
The experiment in a line: SPR. In general terms: SPR reads the build-up and loss of mass on a sensor chip optically.

Data set [4] has as its target T2, Full-length Dreb2a fused to His-tag and GB1-tag (GB1-Dreb2a f.l.) (A. thaliana, UniProt O82132 1-335). In words: SPR.
Data set [5] deals with T2, Full-length Dreb2a fused to His-tag and …. In words: cross-linking.

Take “Med25 551-680-GST (GST-tagged ACID domain of Arabidopsis thaliana Med25) (from UniProt Q7XYY2 551-680) (domain or fragment)”: the stoichiometry N in data set [1] was 1 and 2.

B1: 29-nt rd29A DRE Wt-probe (dsDNA)
DNA 1: AAAGATATACTACCGACATGAGTTCCAAA
DNA 2: TTTGGAACTCATGTCGGTAGTATATCTTT
As for B1, the binding result (with Dreb2a f.l. (GB1 fusion); in data set [2]) was “binds” each time.

B2: Med25 551-680 (ACID domain of the Med25 mediator subunit from Arabidopsis thaliana), GST-tag removed (domain or fragment, A. thaliana, UniProt Q7XYY2 551-680, looked up)
chain: TSQSKYVKVWEGNLSGQRQGQPVLITRLEGYRSASASDSLAANWPPTMQIVRLISQDHMNNKQYVGKADFLVFRAMSQHGFLGQLQDKKLCAVIQLPSQTLLLSVSDKACRLIGMLFPGDMVVFKPQIPN
On to B2, for which the Kd is around 1 µM in data set [3] and around 0.1 µM in data set [4]. The “stoichiometry N” value in data set [5] was determined as 2.

B3: 29-nt rd29A mutated DRE mut-probe (dsDNA)
DNA 1: AAAGATATACTACTTTTATGAGTTCCAAA
DNA 2: TTTGGAACTCATAAAAGTAGTATATCTTT
Regarding B3, the binding result in the data set with Dreb2a f.l. (GB1 fusion) is on record as “no binding”.
